Target: T1, SNF1 fused to the GAL4 DNA-binding domain (pAS2) (UniProt P04386 1-147; P06782 1-633, limits assumed)
T1 construct: Unrelated control protein in the yeast two-hybrid system
Assay: yeast two-hybrid, β-galactosidase
Description: Cloning of STRAP. Northern blot and Southern blot analysis—Y190 containing pAS2-R4C was transformed with a pACT-mouse embryonic cDNA library, and transformants were subjected to selection for histidine prototrophy on SC-his, -trp, -leu plates containing 25 mM 3-aminotriazole (as described in Harper at al., *Cell* 75: 805–816 (1993) and Durfee et al., *Genes Dev.* 7:555–569 (1993)) and rare surviving colonies were then screened for β-galactosidase activity using a colony filter lift assay. Resulting clones, after second screening, were mated with Y187 containing the unrelated proteins p53, lamin, SNF1 and CDK2 fused to the GAL4 DNA-binding domain and tested for β-galactosidase activity. Positive clones were recovered from yeast and retransformed into Y190 with one of several unrelated molecules including lamin, SNF1, p53 or CDK2 in pAS2, for further testing of the specific interaction.
A color photograph was prepared showing STRAP or FKBP12.6 in pACT transformed into yeast strain Y190 containing R4C or one of several unrelated proteins including lamin. SNF1, p53 or CDK2 in pAS2. Transformants were tested for β-galactosidase activity by colony filter lift assay. A blue color indicated a positive interaction.

B1: STRAP (Serine-Threonine Kinase Receptors Associated Protein) in pACT (other)
chain: MAMRQTPLTCSGHTRPVVDLAFSGITPYGYFLISACKDGKPMLRQGDTGDWIGTFLGHKGAVWGATLNKDATKAATAAADFTAKVWDAVSGDELMTLAHKHIVKTVDFTQDSNYLLTGGQDKLLRIYDLNKPEAEPKEISGHTSGIKKALWCSDDKQILSADDKTVRLWDHATMTEVKSLNFNMSVSSMEYIPEGEILVITYGRSIAFHSAVSLEPIKSFEAPATINSASLHPEKEFLVAGGEDFKLYKYDYNSGEELESYKGHFGPIHCVRFSPDGELYASGSEDGTLRLWQTVVGKTYGLWKCVLPEEDSGELAKPKIGFPETAEEELAEEIASENSDSIYSSTPEVKA
notes: Yeast two-hybrid prey from a pACT mouse embryonic cDNA library (1.6 kb cDNA); also called STRAP clone; not shown: fusion partner encoded by the pACT library vector
**Q.** Does B1 bind?
**A.** Result: no binding
